Consider three molecules from patent publication US20170037129A1.

Experiment [1] deals with endogenous human CD147 expressed on human cancer cells (human) (UniProt P35613). Description: flow cytometry on A549 cells. (In general: Flow cytometry measures light scatter and fluorescence of single cells or particles in a stream.)
For experiment [2] the target is unchanged. The experiment in a line: flow cytometry on K562 cells.
Experiment [3] has the same target. The experiment in a line: flow cytometry on PC-3 cells.

One may read the EC50 as the concentration giving half of the maximal effect. Read a low EC50 as a more potent agent.

A value given as a limit tells only on which side of the number the result lay.

B1: C4sh1A6 (antibody, V domains shown)
VH: QVQLVESGGGVVQPGRSLRLSCAASGFTFSTYAMHWVRQAPGRGLEWVAGISYDGSNKYHADPVKGRFTISRDNSKNTLYLQMNNLRVEDSAVYYCAGDRSGGLDVWGQGTTVTVSS
VL: DIVMTQSPSSLSASVGDRVTITCRASQGISNSLAWYQQKSGKAPKLLLYAASGLESGVPSRFSGSGSGTDYTLTISSLQPEDFATYYCQQSYSMPLTFGGGTKVEIK
As to B1, the EC50 was 35.9 nM in experiment [1], 0.6 nM in experiment [2] and more than 100 nM in experiment [3].

B2: C4sh1B2 (antibody, V domains shown)
VH: QMQLVQSGAEVKKPGASVKVSCKASGYTFTGYYIHWVRQAPGQGLEWMGWINPNSGGTIYAQKFQGRVTMTRDTSISTAYMELSRLRSDDTAVYYCARGSTNFDSWGQGTLVTVSS
VL: QAGLTQPPSASGSPGQSVTISCTGTSSDVGGYNSVSWYQQHPGKAPKLMIYDVSNRPSGVSNRFSGSKSGNTASLTISGLQAEDEADYYCSSYINSGTLVFGGGTKLTVL
As to B2, the EC50 was 3.73 nM in experiment [1], 1.55 nM in experiment [2] and 4.5 nM in experiment [3].

B3: C4R1B2 (antibody, V domains shown)
VH: QVQLVQSGAEVKKPGASVKVSCKASGYGFTSYAIHWLRQAPGQRLEWMGWINPGNGNTKYSQKFQGRVTITRDTSATTAYMELTSLRSEDSDTAVYYCARDLDGGSFDHWGQGTLVTVSS
VL: QSVVTQPASVSGSPGQSITISCTGTSSDVGSYNLVSWYQQHPGKAPKLMIYDVTNRPSGVSNRFSGSKSGNTASLTISGLQAEDEADYYCSSYTRSSTYVFGTGTKVTVL
Consider B3, for which the EC50 was 83.8 nM in experiment [1], 168 nM in experiment [2] and more than 100 nM in experiment [3].
